Reference: the supplement of paper PMC11136658

Tested on: peptide library, one residue held at a place counted from the Y acceptor
Experiment: relative phosphorylation of the sub-library (ratio to the mean residue at this position); higher = residue favoured
Procedure, shortened: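 Peptide library mixtures, biotinylated and centred on Tyr, each fixed one residue at one position from −5 to +5. Purified recombinant kinases were incubated with them for 90 min in 384-well plates alongside 50 μM ATP and γ-32P-ATP, and the captured, rinsed peptides on streptavidin membranes were measured by phosphorimaging and ImageQuant. Normalization divided each position's intensities by the sum of its 18 randomized residues (16 for the Ser/Thr-free library) and multiplied by that number, so that values give phosphorylation relative to the mean randomized residue.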

Chain of PDHK1, construct: Full length, human (Q15118 whole entry, looked up): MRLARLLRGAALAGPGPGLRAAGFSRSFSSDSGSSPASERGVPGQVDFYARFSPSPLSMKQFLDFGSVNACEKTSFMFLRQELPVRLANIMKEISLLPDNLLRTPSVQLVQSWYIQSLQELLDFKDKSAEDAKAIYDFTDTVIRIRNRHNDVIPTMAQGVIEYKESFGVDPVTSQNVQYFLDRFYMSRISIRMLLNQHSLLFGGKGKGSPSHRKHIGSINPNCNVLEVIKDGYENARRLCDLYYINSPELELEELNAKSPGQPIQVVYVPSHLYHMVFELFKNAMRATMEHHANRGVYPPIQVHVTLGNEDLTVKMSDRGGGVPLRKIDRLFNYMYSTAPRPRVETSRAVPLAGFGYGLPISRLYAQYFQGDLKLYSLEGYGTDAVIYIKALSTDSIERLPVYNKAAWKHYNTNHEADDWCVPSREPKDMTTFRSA
Chain of PDHK4, construct: Full length, human (Q16654 whole entry, looked up): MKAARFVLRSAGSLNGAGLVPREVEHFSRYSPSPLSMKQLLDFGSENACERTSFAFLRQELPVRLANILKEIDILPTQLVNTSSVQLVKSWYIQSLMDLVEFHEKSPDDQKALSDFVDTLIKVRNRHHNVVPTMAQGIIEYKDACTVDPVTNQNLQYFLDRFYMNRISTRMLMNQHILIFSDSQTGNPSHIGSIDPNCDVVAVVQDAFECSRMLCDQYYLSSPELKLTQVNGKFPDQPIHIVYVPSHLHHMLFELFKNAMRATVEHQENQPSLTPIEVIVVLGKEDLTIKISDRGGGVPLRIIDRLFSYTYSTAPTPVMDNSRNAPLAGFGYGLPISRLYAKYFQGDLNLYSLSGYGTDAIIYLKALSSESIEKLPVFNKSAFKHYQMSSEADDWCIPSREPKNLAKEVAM

PDHK1, construct: Full length, human (from UniProt Q15118)
relative phosphorylation
Settings | at +1 | at +2 | at +3 | at +4 | at +5 | at -1 | at -2 | at -3 | at -4 | at -5
A fixed | 0.893 | 0.682 | 0.8 | 0.868 | 0.717 | 0.76 | 1.54 | 0.847 | 0.895 | 0.845
D fixed | 1.27 | 1.58 | 1.3 | 1.3 | 1.52 | 1.58 | 1.19 | 1.2 | 1.32 | 1.24
E fixed | 1.12 | 1.17 | 1.41 | 1.16 | 1.27 | 1.96 | 1.24 | 1.06 | 1.26 | 1.34
F fixed | 0.897 | 1.29 | 0.991 | 0.899 | 0.97 | 0.627 | 0.764 | 0.933 | 1.06 | 1.01
G fixed | 1.04 | 0.92 | 1.02 | 1.16 | 1.1 | 0.971 | 1.17 | 1.03 | 1.06 | 0.973
H fixed | 1.2 | 1.02 | 1.03 | 1.17 | 1.08 | 0.937 | 0.903 | 1.01 | 1 | 1.14
I fixed | 0.779 | 0.704 | 0.862 | 0.895 | 0.845 | 0.938 | 0.71 | 0.72 | 0.755 | 0.844
K fixed | 0.785 | 0.938 | 0.809 | 0.891 | 0.784 | 0.819 | 0.827 | 0.912 | 0.865 | 0.974
L fixed | 0.844 | 0.863 | 0.78 | 0.907 | 0.838 | 0.888 | 0.72 | 0.93 | 0.881 | 0.906
M fixed | 1.18 | 0.882 | 1.03 | 0.911 | 0.873 | 0.794 | 0.826 | 0.843 | 0.914 | 0.837
N fixed | 1.1 | 1.02 | 1.01 | 0.982 | 1.04 | 1.03 | 1.01 | 1.01 | 0.997 | 1.03
P fixed | 0.925 | 1.1 | 0.981 | 1.16 | 0.898 | 0.974 | 1.73 | 1.06 | 0.91 | 0.945
Q fixed | 0.986 | 0.997 | 1.02 | 0.986 | 0.992 | 0.983 | 0.863 | 1.19 | 1.18 | 0.977
R fixed | 0.822 | 0.851 | 0.899 | 0.819 | 0.863 | 0.744 | 0.818 | 0.976 | 0.891 | 0.935
V fixed | 0.739 | 0.707 | 0.766 | 0.718 | 0.747 | 1.03 | 0.758 | 0.802 | 0.759 | 0.702
W fixed | 1.41 | 1.27 | 1.3 | 1.18 | 1.47 | 0.96 | 0.934 | 1.48 | 1.26 | 1.3
pThr fixed | 1.42 | 1.51 | 1.34 | 1.12 | 1.01 | 1.72 | 1.35 | 1.53 | 1.52 | 1.45
pTyr fixed | 1.23 | 1.36 | 1.41 | 1.14 | 1.31 | 1.71 | 1.63 | 1.64 | 1.36 | 1.47

PDHK4, construct: Full length, human (from UniProt Q16654)
relative phosphorylation
Settings | at +1 | at +2 | at +3 | at +4 | at +5 | at -1 | at -2 | at -3 | at -4 | at -5
A fixed | 0.747 | 0.56 | 0.742 | 0.698 | 0.589 | 0.81 | 0.808 | 0.801 | 0.946 | 0.872
D fixed | 1.19 | 1.6 | 1.29 | 1.41 | 1.34 | 1.15 | 1.15 | 1.25 | 1.27 | 1.31
E fixed | 1.04 | 1.2 | 1.49 | 1.26 | 1.33 | 1.02 | 1.11 | 0.838 | 1.11 | 1.17
F fixed | 0.751 | 0.966 | 0.945 | 0.996 | 1.01 | 0.723 | 0.874 | 0.873 | 0.94 | 0.934
G fixed | 1.01 | 0.938 | 1.02 | 0.95 | 1.05 | 1.17 | 1.24 | 1.26 | 1.19 | 1.1
H fixed | 0.998 | 1.01 | 0.995 | 1.11 | 1.03 | 1.05 | 0.911 | 0.777 | 0.983 | 1.11
I fixed | 0.568 | 0.546 | 0.652 | 0.669 | 0.722 | 0.654 | 0.654 | 0.568 | 0.739 | 0.773
K fixed | 1.04 | 0.95 | 0.777 | 0.863 | 0.777 | 1.14 | 0.926 | 1.25 | 0.945 | 1.02
L fixed | 0.798 | 0.809 | 0.798 | 1.1 | 1.03 | 0.823 | 1.1 | 0.99 | 0.827 | 0.827
M fixed | 0.695 | 0.776 | 0.891 | 0.92 | 0.968 | 0.75 | 0.796 | 0.712 | 0.822 | 0.809
N fixed | 1.49 | 1.3 | 1.16 | 1.15 | 1.06 | 1.34 | 1.21 | 1.14 | 1.01 | 1.07
P fixed | 1.15 | 1.1 | 1.09 | 1.06 | 0.957 | 1.27 | 1.22 | 1.74 | 1.1 | 1.11
Q fixed | 1.39 | 1.42 | 1.19 | 1.26 | 1.21 | 1.32 | 1.11 | 1.24 | 1.02 | 1.03
R fixed | 1.17 | 0.976 | 0.885 | 0.812 | 0.798 | 1.11 | 1.09 | 0.868 | 1.06 | 0.994
V fixed | 0.572 | 0.565 | 0.604 | 0.644 | 0.703 | 0.539 | 0.652 | 0.645 | 0.669 | 0.681
W fixed | 1.39 | 1.28 | 1.47 | 1.1 | 1.44 | 1.13 | 1.15 | 1.05 | 1.37 | 1.18
pThr fixed | 1.31 | 1.69 | 1.35 | 1.51 | 1.1 | 1.43 | 1.19 | 1.42 | 1.32 | 1.43
pTyr fixed | 1.1 | 1.18 | 0.974 | 1.03 | 1.43 | 1.09 | 1.09 | 0.858 | 1.18 | 1.28
